Paper PMC6134094 (mBio, 2018)

Target: T1, cleaved Ebola virus (EBOV) glycoprotein GPCL (Ebola virus (Zaire ebolavirus), UniProt Q05320)
T1 construct: copies: 3 + 3
Experiment: crystal structure
Details: both partners purified

B1: ADI-15878 fragment antigen binding (Fab) (Fab, V domains shown)
VH: QVQLVQSGVTLVQPGGSLRVSCAASGFTFSSYAMSWVRQAPGKGLEWVSAISGLGGSTYYADSVKGRFTISRDNSKNTLYLQMNSLRAEDTAVYYCAKDHRVWAAGYHFDYWGQGALVTVSS
VL: DIVLTQSPSTLSASVGDRVTITCRASQSISSWLAWYQQKPGEAPKLLISDASSLESGVPSRFSGSGSGTEFTLTISSLQPDDFATYYCQQYYSSPTFGGGTKVEIK
notes: also called ADI-15878 Fab
- binding result: binds
